Source: patent US6410239B1, “Identification and comparison of protein—protein interactions that occur in populations and identification of inhibitors of these interactors” (CuraGen Corporation, priority 1996, dated 2002)

Columns and labels:
[1] = target: T1, YULH(R4-GBD) and N106′ (FKBP-12-GAD) interacting hybrid proteins (Homo sapiens, UniProt P62942); assay: 5-FOA assay identifying cells containing a non-genetically-encoded inhibitor of protein-protein interaction; format: cell-based, yeast
T1 construct: These primers flank the entire coding region of the FKBP-12 protein; expressed in transfected cells; host or cells: Saccharomyces cerevisiae YULH(R4-GBD) x N106'(FKBP-12-GAD)
T1 sequence (P62942 whole entry): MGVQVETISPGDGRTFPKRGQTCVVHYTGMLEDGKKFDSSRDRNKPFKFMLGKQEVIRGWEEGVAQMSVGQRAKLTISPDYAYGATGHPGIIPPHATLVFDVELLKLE
Procedure: The above method described for the isolation of inhibitor peptides can also be used to screen and isolate inhibitors that are not genetically encoded. In other contexts, for example, a yeast-based transcription-inhibition assay has been used to screen for inhibitors of the HIV-1 proteinase (Murray et al., 1993, Gene 134:123-128). The reporter strains YULH(R4-GBD) and N106′ (FKBP-12-GAD), that harbor the reporter gene-systems and the two interacting proteins are grown in a 96-well format with each well containing 200 μl of media that selects for both the GBD and GAD plasmids (SC-LEU-TRP).
After a growth period (24-36 hours) that is sufficient for early log-phase growth (a cell density of 1×10^7 cells/ml), the cells are exposed to an RNA inhibitor at a concentration of 100 nM for 1-2 hours. This RNA inhibitor is of the sequence 5′-[…]-3′ (SEQ ID NO:35). The pyrimidines in this RNA are modified with 2′-amino-2-deoxypyrimidines that causes the RNA to be resistant to nucleases. This RNA binds with high affinity to VEGF (Green et al., 1995, Current Biol. 2:683-695). […]
In the absence of the RNA inhibitor, cells are not able to grow in 5-FOA. […] The activity of the lacZ gene is determined by assaying the β-galactosidase activity of the cells as mentioned in Section 6.1.11. […]

[2] = target: T2, VEGF (Homo sapiens, UniProt P15692); settings: cited from earlier work
T2 sequence (P15692 207-395): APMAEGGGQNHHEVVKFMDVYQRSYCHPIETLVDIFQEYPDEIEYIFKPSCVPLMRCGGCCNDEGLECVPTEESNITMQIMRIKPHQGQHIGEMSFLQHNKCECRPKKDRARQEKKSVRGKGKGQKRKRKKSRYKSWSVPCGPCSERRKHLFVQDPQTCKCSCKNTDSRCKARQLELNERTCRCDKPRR

[3] = target: T3, interaction between the RAF-GAD and RAS-GBD proteins (Homo sapiens, UniProt P04049); assay: Peptide expressed from pPEV1 tested for inhibition of the RAS-RAF interaction in yeast mating two-hybrid assay; format: cell-based
T3 construct: expressed in transfected cells; host or cells: Saccharomyces cerevisiae diploids of YULH-RAFINT (RAF-GAD integrated at MER2) x N106' (RAS-GBD plasmid)
Source text: These oligonucleotides also introduced unique restriction sites (EagI and SphI) that facilitate the cloning of the amplified DNA fragments into the integration vector R1400. The R1400 plasmid vector consists of two yeast genes LYS2 (Fleig et al., 1986, Gene 46:237-245) and MER2 (Engebrecht et al., 1991, Cell 66:1257-1268). The LYS2 marker is used for the selection of integration events, while, the MER2 gene is used for integration of the entire plasmid into the yeast genome. MER2 is a gene that is not essential for the vegetative growth of yeast. The RAF-GAD gene was cloned into the R1400 plasmid to yield RAF-INT. This plasmid was then digested with the restriction enzyme PstI that has a site in the MER2 gene. The restriction was done in a partial manner as there are other PstI sites in the plasmid vector. The restriction digestion was allowed to proceed only for 1 minute and then the enzyme was inactivated by extracting with phenol-chloroform and the DNA was then precipitated. This linearized DNA was used to transform the YULH strain to yield YULH-RAFINT. Integration occurs at the MER2 locus, and the integration events were selected by growing the transformants on media lacking lysine. The N106′ strain was transformed with the RAS-GBD plasmid to form N106′ (RAS-GBD). The proper functioning of the RAF-GAD fusion was confirmed by mating YULH-RAFINT and N106′ (RAS-GBD) and observing the resultant activation of the URA3 and the lacZ Reporter Genes.
The PEVs serve to express and localize peptides (or proteins) in the nucleus of the yeast cell where their potential to inhibit specific protein-protein interactions is tested. This inhibitory activity of the peptides is monitored by their ability to inhibit the activity of the reporter genes like URA3, HIS3 and lacZ.
The PEVs comprise the following operably linked components (FIG. 7): an ADC1 promoter (ADC1-P) for supporting transcription in yeast (Ammerer, 1983, Meth. Enymol. 101:192-201); a nucleotide sequence encoding an SV40 Nuclear Localization Signal (NLS) for transporting the peptide to the nucleus (Dingwal and Laskey, 1991, Trends. Biochem. Sci. 16:478); followed by a stop codon (UAG) for terminating translation; means for inserting a DNA sequence encoding a candidate inhibitor peptide into the PEV in such a manner that the candidate inhibitor peptide is capable of being expressed as part of a fusion protein containing the NLS; and an ADC1 transcription termination signal. The NLS from SV40 large T comprises a 7 amino acid stretch (PKKKRKV) (SEQ ID NO:20) that has been successfully used in targeting proteins into the yeast nucleus (Benton et al., 1990, Mol. Cell. Biol. 10:353-360). […]

Substance | growth in SC-TRP-LEU in the absence of 5-FOA, in the presence of the inhibitor ([1]; RNA inhibitor at 100 nM) | growth in media containing 5-FOA and uracil ([1]; RNA inhibitor at 100 nanomolar, without inhibitor cells are not able to grow in 5-FOA) | binding affinity to VEGF [2] | β-galactosidase activity (lacZ reporter) of diploids ([3]; YULH2RAS (pPEVRAS-E) mated to N106′(RAS-GBD), control diploids are LACZ+) | growth of diploids on media lacking uracil (URA3 reporter) ([3]; YULH2RAS (pPEVRAS-E) mated to N106′(RAS-GBD), control diploids are URA+) | growth of diploids on medium containing 5-FOA ([3]; YULH2RAS (pPEVRAS-E) mated to N106′(RAS-GBD), control diploids unable to grow) | inhibition of the protein-protein interaction ([3]; peptide expressed in the yeast nucleus from pPEV1)
5′-CCCUGAUGGUAGACCGGGGUG-3′ (chemistry not fully specified) [RNA inhibitor] | able to grow | Growth is evident | high affinity | – | – | – | –
RAS effector peptide: RAS amino acids 17-40, from a region important for interaction with RAF, expressed from pPEVRAS-E (SALTIQLIQNHFVDEYDPTIEDSY; UniProt P01112 17-40, looked up, fragment) | – | – | – | negative for β-galactosidase activity | unable to grow on media lacking uracil | grow on medium containing 5-FOA | inhibits the interaction
